Assay results reported in article PMC10257657, “A flavin-monooxygenase catalyzing oxepinone formation and the complete biosynthesis of vibralactone” (Nature Communications, 2023).

Substrate: CC(C)=CCc1cc(CO)ccc1O
Assay: purified protein
Type: biochemical, Boreostereum vibrans
Details: NADPH 0.1 mM, 50 mM sodium phosphate pH 7.5, 28 °C, 30 min

B1: VibO (Boreostereum vibrans) (protein)
chain: MAAVENFEGYVEPELFERPGTSLPNKLGVMPQLTWPNVLNGTNCEKPAVPNYKPPSKVDVIIIGAGPVGLTTAACLLRQGITVRILDRSPHPLPVGRADGLQPRSMEVFDLLGLGEEVYHVGIRVEHTTVYKDGKQHIFAESHQAPGNEAHYTGLHACTQTEVEHLLIRDLIRHDILVERPCTATSYTFDEEADASVTHPITVNITNEATGAEEVVTARFLVGSDGAHSMIRKSLPIEFPGVKTDLHWGIVDAVINSDFPHRWTFGTVLNSEYGGCLIIPRERNMVRLYVQLRAEPGKAFDHSKWGPEEILVILNKVFAPYTLSYAEPVDWYTILTINERVATSFTYKDRIFLAGDSCHVHSAKGAFGMNTGVMDAHNLAWKLAMLCRGIAKPSLLASYDVERRENALRAVATSARYLRFVGNCTFQAIDGSGEVDKEADELVVPPGEDKDVFYFKKFVGQVGRFLIGLDVDYAENALNKLSPAVSRARAGYRASNPRVALSRSHSGRLYHSFGHLGQFTLLVFASNMGGALNAKLHALDSYLAGPSSFYHAYGGADTFKIVVVVRATPSQADQRVKTFPFLSKAGHTVYDDQLPLSHFGGDAHALYGVSHEEGAIVVVRPDSWIGTSSTISDARSLESYFDGFLFKSTEGSY
notes: full length, N-terminal His6 tag, expressed in E. coli BL21(DE3) (pET28a(+)); domains cover residues 1-653; dimer; copurified FAD
  Km: 0.407 ± 0.083 mM
  kcat: 0.111 ± 0.010 min^–1
